Laboratory results: patent US12070483B2, “Compositions and methods for treatment of acute lung injury” (THE TRUSTEES OF THE UNIVERSITY OF PENNSYLVANIA, priority 2018, dated 2024)
Each block holds one sequence with its values, some of them ahead of it.

Experiments:
Prdx6 [1] = target: T1, Prdx6 (Mus musculus, UniProt O08709); assay: aiPLA2 (Prdx6-PLA2) activity of mouse lung homogenate after IT or IV injection of PIP; format: in vivo; parameters: key to aiPLA2 activity, figure in parentheses (0 h = 100): Prdx6-PLA2 activity as % of 0 h value (0 h = 100); settings: for Prdx6-PLA2 activity of mouse lung homogenate: Table 6; for aiPLA2 activity of mouse lung: 24 hours after IV injection, 2 μg/g, liposomes only 8.81
T1 construct: from tissue; host or cells: mouse lung homogenate (wild type mice)
T1 sequence (O08709 1-224): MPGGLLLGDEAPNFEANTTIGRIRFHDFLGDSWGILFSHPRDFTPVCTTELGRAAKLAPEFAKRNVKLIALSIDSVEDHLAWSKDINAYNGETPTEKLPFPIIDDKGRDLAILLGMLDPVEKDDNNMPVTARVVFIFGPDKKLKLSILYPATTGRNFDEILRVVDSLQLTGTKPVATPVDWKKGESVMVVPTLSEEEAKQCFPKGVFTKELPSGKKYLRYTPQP
Experimental: FIG. 6: PIP-2 in liposomes was administered to mice either intratracheally (IT) or intravenously (IV) at 0 time. Lungs were harvested at intervals between 4 and 72 h after the PIP-2 administration, homogenized, and analyzed for Prdx6-PLA2 activity. PIP-2 is effective by either the IT or IV route with a calculated ½ time for recovery of ˜50 h. Results are mean+SE for N=3-4.
PIP-2 in liposomes injected IV or IT inhibits Prdx6 activity of the lung homogenate. Maximal inhibition was seen within 4 hours after administration of PIP-2. Recovery from inhibition began at ˜36 hours and was complete by 48 hours. Results are similar for PIP-1,2,4 (PIP-3 and -5 were not tested). […] Effectiveness requires liposomes for peptide delivery. Inhibition after IT or IV administration was similar.

NADPH oxidase (NOX2) = assay: H2O2 production (Amplex red) of perfused lung 5 min after PIP-2 in saline or liposomes; format: in vivo, mouse; settings: IT or IV
Experimental: FIGS. 1A and 1B: Wild type C57Bl/6 mice at age 8-10 weeks were injected with 2 ug/g body wt of PIP-2 either through an intratracheal catheter (IT) or intravenously (IV). The injected peptide was dissolved in saline or was incorporated into unilamellar liposomes consisting of dipalmitoyl phosphatidylcholine (DPPC), egg phosphatidylcholine (PC), phosphatidylglycerol (PG), and cholesterol (molar ratio of lipids, 50:25:10:15). […] Mice were sacrificed after 5 min, lungs were perfused until cleared of blood, and then subjected to recirculating perfusion under temperature-controlled (37° C.) conditions in the presence of the fluorescent indicator Amplex red plus horseradish peroxidase (HRP) in order to monitor the oxidation of Amplex red by H2O2. The fluorescence of aliquots of perfusate was measured at the indicated times and expressed as arbitrary fluorescence units (AFU). The increasing fluorescence with time of perfusion indicates the production of H2O2 reflecting the activation of cellular NADPH oxidase (NOX2).
The lungs were removed from mice and studied in an isolated system. The slope of the lines indicates the production of oxidants (H2O2).

aiPLA2 activity of Prdx6 = target: T2, aiPLA2 activity of Prdx6 (Mus musculus, UniProt O08709); assay: Lung aiPLA2 activity after IT LPS; format: in vivo; settings: PIP-2 with IT LPS 5 μg/g; 6, 12 and 24 h
T2 construct: from tissue; host or cells: mouse lung homogenate (wild type mice)
T2 sequence (O08709 1-224): T1 sequence (O08709 1-224)
Experimental: FIGS. 4A and 4B: Phospholipase A2 of Prdx6 (aiPLA2) was measured by the liberation of palmitic acid from dipalmitoylphosphatidylcholine under acidic conditions (pH 4) in the absence of Ca^2+. FIG. 4A: The effect of increasing concentration of PIP-2 on the aiPLA2 activity of recombinant human Prdx6. FIG. 4B: The effect of LPS and PIP-2 treatment on aiPLA2 activity of mouse lungs. Mice (n=3 for each condition) were treated with intratracheal LPS (2 μg/g body wt) without or with PIP-2 (2 μg/g body weight) in liposomes. Animals were sacrificed at 6,12, or 24 h after receiving LPS. Lungs were cleared of blood and homogenized.
FIGS. 9A and 9B: PIP-2 inhibits the increased lung aiPLA2 activity and increased ROS generation after LPS administration. LPS (5 μg/g body weight) was administered by intratracheal (IT) instillation along with liposomes alone (labeled as LPS) or with PIP-2 in liposomes (labeled as +PIP-2). Control was liposomes alone without LPS (labeled as control). Mice were sacrificed at 6, 12, or 24 h after LPS and lungs were perfused in situ for 15 min with saline solution containing the fluorophore difluorofluoroscein diacetate (DFF-DA). Lungs then were homogenized and assayed for: FIG. 9A: aiPLA2 activity; FIG. 9B: fluorescence of the lung homogenate as an index of ROS production. […]

Prdx6 [2] = target: T1, Prdx6; settings: PIP-2 2 μg/g in liposomes, for at least 24 h; shown previously; cited from earlier work
mice, high dose IT LPS = assay: High dose intratracheal LPS (15 μg/g): survival and lung injury of survivors
Experimental: LPS (15 mg/g body wt) was given to all mice either by: FIG. 7A: intratracheal (IT) or FIG. 7B: intraperitoneal (IP) injection. PIP-2 in liposomes or placebo (liposomes alone) was administered intravenously (IV) 12 h after LPS (this is treatment time zero) and then at 12 or 24 h intervals for a total of 5 doses as indicated by the arrows. FIG. 7A: PIP-2 at 2 μg/g body wt; N=14 for each group. FIG. 7B: PIP-2 at 2 or 20 μg/g body wt.; Placebo group, n=8; PIP-2 2 mg group, n=7; PIP-2 20 mg group, n=10.
Anesthesized mice were administered LPS (either 5 or 15 μgig body weight) in 20 μl saline that was instilled into the lung through an endotracheal catheter placed at the level of the tracheal carina. […] PIP-2 in liposomes was suspended in 20 μl saline for IV or IT injection. For studies to evaluate the effect of PIP-2 at zero time, LPS administration was followed by liposomes±PIP-2 also given by IT instillation. For studies to evaluate the effect of PIP-2 administered at later times after LPS, the liposomes±PIP-2 were given by injection into a retinal artery. This shift in route of administration was used to minimize damage to the mouse trachea that could occur with repeated tracheostomy and lead to untoward effects on the lung. […] We gave the second dose of PIP-2 at 12 h to be certain of maximal coverage and then went to every 24 h for PIP-2 administration. For the model of sepsis, LPS (15 μg/g body wt.) in 20 μl saline was injected intraperitoneally and mice were treated with IV PIP-2 at either 2 or 20 μg/g body wt; note that the initial dose of PIP-2 for this sepsis model was IV, not IT. We used the same times of PIP-2 administration in the sepsis model as were used for the IT LPS model. After recovery from anesthesia, all mice were maintained in the vivarium with access ad lib to food and water.
At the end of each experiment with IT LPS (at either 24 or 120 h), surviving mice were sacrificed by exsanguination under anesthesia. Lungs in situ were cleared of blood by perfusion through the pulmonary artery and then were lavaged through the trachea with saline. The lung was then removed from the thorax for tissue assays. We evaluated the effect of LPS on lung injury by measuring the number of nucleated cells and the protein content in the lung bronchoalveolar lavage fluid (BALf), the lung wet to dry lung weight ratio using the left upper lobe of lung, and thiobarbituric-acid reactive products (TBARS), 8-isoprostanes, and protein carbonyls in the lung homogenate to determine the oxidation of lung tissue lipid and protein components. For studies of mouse mortality, survival plots were constructed using the Kaplan-Meier estimator.
The survival data is plotted with the initial PIP-2 treatment as 0 time; LPS was administered 12 h before PIP-2 (−12 h that is off of the graph in FIG. 7A and FIG. 7B).
Mice were instilled IT with LPS (15 μg/g wt); PIP-2 (2 μg/g body wt) in liposomes was injected (IV) at the times shown in FIG. 7A. Five of the surviving mice were sacrificed at 120 h after LPS; control mice were given liposomes but not LPS. […] Values are mean±SE for N=4 for control and N=5 for LPS+PIP-2.

[3] = test system: C57Bl/6 mice, LPS-mediated lung injury; assay: Acute lung injury after intratracheal LPS (5 μg/g), lungs evaluated at 24 h; format: in vivo, mouse; settings: LPS 5 μg/g IT, sacrifice at 24 hrs

Sequence: LHDFRHQIL (Inhibitory peptide.) [PIP-2]
aiPLA2 activity of mouse lung homogenate (Prdx6 [1]; IT, 0 h post injection): 8.84 ± 0.35 nmol/hr/mg protein | aiPLA2 activity, figure in parentheses (0 h = 100) (Prdx6 [1]; IT, 0 h post injection): 100 | aiPLA2 activity of mouse lung homogenate (Prdx6 [1]; IT, 4 h post injection): 1.56 ± 0.03 nmol/hr/mg protein | aiPLA2 activity, figure in parentheses (0 h = 100) (Prdx6 [1]; IT, 4 h post injection): 18 | aiPLA2 activity of mouse lung homogenate (Prdx6 [1]; IT, 12 h post injection): 1.61 ± 0.04 nmol/hr/mg protein | aiPLA2 activity, figure in parentheses (0 h = 100) (Prdx6 [1]; IT, 12 h post injection): 18 | aiPLA2 activity of mouse lung homogenate (Prdx6 [1]; IT, 24 h post injection): 1.63 ± 0.14 nmol/hr/mg protein | aiPLA2 activity, figure in parentheses (0 h = 100) (Prdx6 [1]; IT, 24 h post injection): 18 | aiPLA2 activity of mouse lung homogenate (Prdx6 [1]; IT, 36 h post injection): 2.04 ± 0.04 nmol/hr/mg protein | aiPLA2 activity, figure in parentheses (0 h = 100) (Prdx6 [1]; IT, 36 h post injection): 27 | aiPLA2 activity of mouse lung homogenate (Prdx6 [1]; IT, 48 h post injection): 2.95 ± 0.10 nmol/hr/mg protein | aiPLA2 activity, figure in parentheses (0 h = 100) (Prdx6 [1]; IT, 48 h post injection): 33 | aiPLA2 activity of mouse lung homogenate (Prdx6 [1]; IT, 72 h post injection): 8.78 ± 0.18 nmol/hr/mg protein | aiPLA2 activity, figure in parentheses (0 h = 100) (Prdx6 [1]; IT, 72 h post injection): 99 | aiPLA2 activity of mouse lung homogenate (Prdx6 [1]; IV, 0 h post injection): 8.85 ± 0.3 nmol/hr/mg protein | aiPLA2 activity, figure in parentheses (0 h = 100) (Prdx6 [1]; IV, 0 h post injection): 100 | aiPLA2 activity of mouse lung homogenate (Prdx6 [1]; IV, 4 h post injection): 1.45 ± 0.07 nmol/hr/mg protein | aiPLA2 activity, figure in parentheses (0 h = 100) (Prdx6 [1]; IV, 4 h post injection): 16 | aiPLA2 activity of mouse lung homogenate (Prdx6 [1]; IV, 12 h post injection): 1.58 ± 0.04 nmol/hr/mg protein | aiPLA2 activity, figure in parentheses (0 h = 100) (Prdx6 [1]; IV, 12 h post injection): 18 | aiPLA2 activity of mouse lung homogenate (Prdx6 [1]; IV, 24 h post injection): 1.77 ± 0.11 nmol/hr/mg protein | aiPLA2 activity, figure in parentheses (0 h = 100) (Prdx6 [1]; IV, 24 h post injection): 20 | aiPLA2 activity of mouse lung homogenate (Prdx6 [1]; IV, 36 h post injection): 2.14 ± 0.03 nmol/hr/mg protein | aiPLA2 activity, figure in parentheses (0 h = 100) (Prdx6 [1]; IV, 36 h post injection): 24 | aiPLA2 activity of mouse lung homogenate (Prdx6 [1]; IV, 48 h post injection): 3.03 ± 0.05 nmol/hr/mg protein | aiPLA2 activity, figure in parentheses (0 h = 100) (Prdx6 [1]; IV, 48 h post injection): 34 | aiPLA2 activity of mouse lung homogenate (Prdx6 [1]; IV, 72 h post injection): 8.49 ± 0.10 nmol/hr/mg protein | aiPLA2 activity, figure in parentheses (0 h = 100) (Prdx6 [1]; IV, 72 h post injection): 96 | time at which recovery from inhibition began (Prdx6 [1]; PIP-2 in liposomes IV or IT): ~36 h | time at which recovery from inhibition was complete (Prdx6 [1]; PIP-2 in liposomes IV or IT): ≤ 48 h | time to maximal inhibition of Prdx6 activity of lung homogenate (Prdx6 [1]; PIP-2 in liposomes IV or IT): ≤ 4 h | calculated ½ time for recovery of Prdx6-PLA2 activity (Prdx6 [1]; PIP-2 in liposomes, IT or IV): ~50 h | Prdx6-PLA2 activity of mouse lung homogenate (Prdx6 [1]; IT, lungs lavaged prior to assay, 0 post injection): 8.1 ± 0.3 nmol/hr/mg protein | Prdx6-PLA2 activity of mouse lung homogenate (Prdx6 [1]; IT, lungs lavaged, 24 hr post injection): 1.2 ± 0.02 nmol/hr/mg protein | Prdx6-PLA2 activity of mouse lung homogenate (Prdx6 [1]; IT, lungs lavaged, 48 hr post injection): 3.0 ± 0.2 nmol/hr/mg protein | Prdx6-PLA2 activity of mouse lung homogenate (Prdx6 [1]; IT, lungs lavaged, 72 hr post injection): 8.3 ± 0.9 nmol/hr/mg protein | generation of H2O2 (NADPH oxidase (NOX2); PIP-2 2 ug/g in liposomes): markedly inhibits | effect on the rate of H2O2 production (NADPH oxidase (NOX2); PIP-2 2 ug/g in saline): no effect | aiPLA2 activity of lung after LPS (aiPLA2 activity of Prdx6): dramatic decrease | inhibition of lung aiPLA2 activity (Prdx6 [2]): ~90% | lungs of PIP-2 treated mice that survive high dose LPS (mice, high dose IT LPS; LPS 15 μg/g IT or IP, PIP-2 2 or 20 μg/g IV, 5 days after LPS): normal lungs | BALf cells (mice, high dose IT LPS; LPS 15 μg/g IT, PIP-2 2 μg/g IV in liposomes 5 doses, survivors sacrificed 120 h after LPS, control 0.95): 0.96 ± 0.40 ×10^4/g body wt. | Wet/Dry ratio (mice, high dose IT LPS; LPS 15 μg/g IT, PIP-2 2 μg/g IV, survivors at 120 h after LPS, control 5.59): 5.34 ± 0.03 | Protein carbonyls (mice, high dose IT LPS; LPS 15 μg/g IT, PIP-2 2 μg/g IV, survivors at 120 h after LPS, control 5.6): 5.6 ± 0.2 nmol/mg prot | 8-Isoprostanes (mice, high dose IT LPS; LPS 15 μg/g IT, PIP-2 2 μg/g IV, survivors at 120 h after LPS, control 34): 34 ± 3 pmol/mg prot | BALf protein (mice, high dose IT LPS; LPS 15 μg/g IT, PIP-2 2 μg/g IV, survivors at 120 h after LPS, control 75): 78 ± 2.2 μg/g wt | TBARS (mice, high dose IT LPS; LPS 15 μg/g IT, PIP-2 2 μg/g IV, survivors at 120 h after LPS, control 76): 77 ± 1 pmol/mg prot | mortality (mice, high dose IT LPS; LPS 15 μg/g IT, PIP-2 2 μg/g IV at 12, 24, 48, 72, 96 h after LPS, at 36 h after start of treatment, no further mortality, placebo 100% by 48 h): 17% | survival (mice, high dose IT LPS; LPS 15 μg/g IT, PIP-2 2 μg/g IV, at 36 h after start of treatment): 83%

aiPLA2 activity of mouse lung (Prdx6 [1]; alone, no liposomes): 8.43 ± 0.23 (n = 3) nmol/hr/mg prot | aiPLA2 activity of mouse lung (Prdx6 [1]; in liposomes): 1.55 ± 0.02 (n = 3) nmol/hr/mg prot | Prdx6-PLA2 activity of mouse lung homogenate (Prdx6 [1]; IV, 0 post injection): 8.0 ± 0.7 nmol/hr/mg protein | Prdx6-PLA2 activity of mouse lung homogenate (Prdx6 [1]; IV, 24 hr post injection): 1.1 ± 0.02 nmol/hr/mg protein | Prdx6-PLA2 activity of mouse lung homogenate (Prdx6 [1]; IV, 48 hr post injection): 2.8 ± 0.2 nmol/hr/mg protein | Prdx6-PLA2 activity of mouse lung homogenate (Prdx6 [1]; IV, 72 hr post injection): 7.8 ± 1.2 nmol/hr/mg protein | Prdx6-PLA2 activity of mouse lung homogenate (Prdx6 [1]; IV, 96 hr post injection): 8.1 ± 0.2 nmol/hr/mg protein
Sequence: LYEIKHQIL (Inhibitory peptide.) [PIP-4]
protein ([3]; PIP-4 2 μg/g IT @0 hrs, LPS alone 166): 77 ± 3 μg protein/g wt | TBARS ([3]; PIP-4 2 μg/g IT @0 hrs, LPS alone 374): 78 ± 4 pmol/mg prot. | TBARS ([3]; PIP-4 2 μg/g IV @12 hr): 84 ± 2 pmol/mg prot. | Wet/Dry lung weight ratio ([3]; PIP-4 2 μg/g IV @12 hr): 5.94 ± 0.05
